The text below walks through data of publication PMC9811624 (The EMBO Journal, 2022).

By Kd is commonly meant the equilibrium constant for the complex coming apart. Read a low Kd as tighter binding. For orientation: koff means the rate constant with which the complex falls apart. The kon is the rate constant with which the complex forms. Low readings indicate slow association, high ones fast association.

For experiment [1], the target named is MBP-OsCBL8 (Oryza sativa (rice)) (UniProt Q3HRN9). The experiment can be described thus: SPR. In general terms: Surface plasmon resonance follows binding to a sensor surface in real time, without labels.
For experiment [2], the target named is MBP-OsCRT3 (Oryza sativa (rice)). The experiment in a line: SPR.
In experiment [3] the target is MBP-OsCBL8 (Oryza sativa (rice)) (UniProt Q3HRN9). The experiment can be described thus: SPR. The source holds these as a separate data set.
For experiment [4], the target named is MBP-OsCRT3 (Oryza sativa (rice)). The experiment in a line: SPR. This is another data set of the same source.
The target of another experiment is T1, GST-OsCIPK7 (Oryza sativa (rice), UniProt Q75GK4 1-447).
T1 sequence: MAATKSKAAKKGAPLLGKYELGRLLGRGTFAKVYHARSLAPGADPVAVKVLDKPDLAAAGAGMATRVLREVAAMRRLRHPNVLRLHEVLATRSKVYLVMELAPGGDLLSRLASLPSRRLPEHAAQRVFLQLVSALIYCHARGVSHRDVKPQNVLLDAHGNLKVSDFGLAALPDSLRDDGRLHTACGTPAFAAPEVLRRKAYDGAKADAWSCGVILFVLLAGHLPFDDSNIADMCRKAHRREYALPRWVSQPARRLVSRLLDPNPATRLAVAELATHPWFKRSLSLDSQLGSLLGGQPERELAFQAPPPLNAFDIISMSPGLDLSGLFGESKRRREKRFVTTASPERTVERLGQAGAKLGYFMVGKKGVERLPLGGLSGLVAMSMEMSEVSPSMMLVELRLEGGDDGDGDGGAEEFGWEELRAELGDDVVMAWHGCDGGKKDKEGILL
The experiment in a line: pull-down.

Like-named read-outs stand apart in the source and are kept apart here.

As for GST-OsCIPK7-C (domain or fragment), the Kd in experiment [1] came to 390 nM; in experiment [2], 920 nM; in experiment [3], 340 nM; in experiment [4] it was 6490 nM. The dissociation rate constant (koff) in experiment [2] turned out to be 0.00077 s⁻¹; in experiment [4] it was 0.00157 s⁻¹. Besides, the kon in experiment [2] was 684 M⁻¹ s⁻¹; in experiment [4] it was 256 M⁻¹ s⁻¹.

B1: MBP-OsCBL7 (natural protein)
chain: MGCISSKQFKRAAEHEDPAILAKETTFSVSEVEALYELFKKISHSIFKDGLIHKEEFQLALFRNSNKKNLFADRIFDLFDLKRNGVIDFGEFVRSLNIFHPETPLAEKIAFAFRLYDLRGTGYIEREELYEMVLAILNESDLLLSDDAVEQIVDQTFKQADLNSDGKIDPDEWKAFASKNPALLKNMTLPYLKDITMAFPSFVLNSGVDDEEL
In the case of B1, the binding result with GST-OsCIPK7 is given as “binds”.

B2: MBP-OsCBL8 (natural protein)
chain: MGCVSSKQFKRAAQHEDPAILAKETTFSVSEVEALFELFKKISHSIFRDGLIHKEEFQLALFRNSNKKNLFANRIFDLFDLKRNGVIDFGEFVRSLSIFHPETPLGDKIAFAFRLYDLRGTGCIEREELHEMVLALLNESDLFLSEEAVEQIVDQTFKQADLNDDGKIDPDEWKTFASKNPALLKNMTLPYLKDITMVFPSFILNSEVCEEEL
Take B2: the binding result with GST-OsCIPK7 was “binds”.
